# Assay results as given in PMC9348671, “Structural elucidation of substrate-bound aminoglycoside acetyltransferase (3)-IIIa” (PLoS ONE, 2022).
# Target: the molecule itself
# Experiment: SEC; HiLoad Superdex 200 26/60 in 20 mM Tris pH 7.5, 150 mM NaCl; tag removed
protein,measurement,value
"aminoglycoside acetyltransferase (3)-IIIa (enzyme, AAC(3)-IIIa from Pseudomonas aeruginosa, GenBank CAA39184.1; gene synthesized with codons optimized for E. coli, in pET15b between NdeI and BamHI; Hexahistidine tag removed by thrombin; residues of the thrombin site and vector may be left at the N-terminus; Crystals held CoASH and an aminoglycoside (gentamicin, sisomicin or neomycin); also called AAC(3)-IIIa; iso^A; source: LOBSTR E. coli, …) MTDLNIPHTHAHLVDAFQALGIRAGQALMLHASVKAVGAVMGGPNVILQALMDALTPDGTLMMYAGWQDIPDFIDSLPDALKAVYLEQHPPFDPATARAVRENSVLAEFLRTWPCVHRSANPEASMVAVGRQAALLTANHALDYGYGVESPLAKLVAIEGYVLMLGAPLDTITLLHHAEYLAKMRHKNVVRYPCPILRDGRKVWVTVEDYDTGDPHDDYSFEQIARDYVAQGGGTRGKVGDADAYLFAAQDLTRFAVQWLESRFGDSASYG",stoichiometry N,2
